This assay concerns the target T1, IRTA1 extracellular domain-Fc fusion protein (human, UniProt Q96PJ5 20-387).
T1 construct: Whole entry named; also called IRTA1-Fc; IRTA1 (Fc-fusion); not shown: human IgG1 hinge and Fc
T1 sequence: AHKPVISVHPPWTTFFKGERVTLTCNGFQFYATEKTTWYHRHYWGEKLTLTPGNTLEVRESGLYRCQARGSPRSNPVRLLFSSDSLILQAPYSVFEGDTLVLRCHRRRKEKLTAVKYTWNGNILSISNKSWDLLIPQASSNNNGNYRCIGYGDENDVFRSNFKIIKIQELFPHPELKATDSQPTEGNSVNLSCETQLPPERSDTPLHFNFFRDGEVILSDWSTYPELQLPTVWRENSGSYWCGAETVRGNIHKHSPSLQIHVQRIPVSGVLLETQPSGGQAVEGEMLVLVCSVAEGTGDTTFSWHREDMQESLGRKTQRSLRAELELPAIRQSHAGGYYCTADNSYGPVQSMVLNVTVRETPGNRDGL
The experiment in a line: IRTA Fc-fusion. The protocol:
Each Fc-fusion protein indicated on the top of the column was captured on ELISA plates using secondary antibody (goat anti-human IgG). After washing, 100 ng/50 μl/well of MAbs were added, followed by HRP-labeled goat anti-mouse IgG and TMBZ substrate. The signals in ELISA were normalized for the amounts of each Fc-fusion protein on the plates using HRP-goat anti-human Fc. The controls are MAbs 9E10 (anti-myc tag, IgG1), BerH2 (anti-CD30, IgG1), T408 (anti-CD30, IgG2a), T420 (anti-CD30, IgG2b) and HRP-goat anti-human Fc (1/2400 dilution). […] Two days after transfection, the cells were harvested and incubated with 200 ng/100 μl of each MAb, followed by PE-conjugated goat anti-mouse IgG F(ab′)2. […] In the positive control panels, the MAbs cross-reactive to other IRTAs were used. They are F26 (anti-IRTA1 and anti-IRTA2, IgG2b), F109 (anti-IRTA3, IgG2b), F47 (anti-IRTA4, IgG2a), and F69 (anti-IRTA5, IgG2a). BerH2 (anti-CD30, IgG1) was also used. “+” indicates more than 1.5-fold than that of the control; “++” indicates more than 10-fold mean fluorescence intensity than that of the negative control.
ELISA. In a typical indirect ELISA for the screening of hybridomas, microtiter plates (MaxiSorp; Nalge Nunc, Rochester, N.Y.) were coated with 100 ng/50 μl/well of goat anti-human IgG in phosphate buffered saline (PBS) for 2 hours at room temperature. Next, 50 ng/100 μl/well of IRTA2-Fc in blocking buffer (25% DMEM, 5% FBS, 25 mM HEPES, 0.5% bovine serum albumin, 0.1% sodium azide in PBS) was added to each well and incubated for 2 hours at room temperature. After washing with PBS containing 0.05% Tween 20, 50 μl of the hybridoma supernatants were added and incubated for 2 hours at room temperature. After washing, the bound MAbs were detected by a 2-hour incubation with horseradish peroxidase (HRP)-labeled goat anti-mouse IgG (Jackson ImmunoResearch, Grove, Pa.) followed by tetramethylbenzidine (TMB) substrate kit (Pierce, Rockford, Ill.). In some experiments, other IRTA-Fc fusion proteins were used instead of IRTA2-Fc.

The source of these data is US20080292632A1 (US Dept. of Health and Human Services, published 2008).

B1: F25 (antibody, IgG2a, V domains shown)
VH: EVQLQQSGPELVKPGTSVKMSCKASGYSFTGYFMNWMMQNHGKSLEWIGRINLYNGDTFYNQKFKDKATLTVDKSSNTVHMEFRSLASEDSAVYYCASSLYYFDYWGQGTTFTVSS
VL: DIVMTQSHKFMSTSVGDRVNITCKASQDVGTNVAWYQQKPGQSPKLLIYWASTRQTGVPDRFTGSGSGTDFTLTISNVQSEDLSDYFCQQYSSYPLTFGAGTKLELKR
notes: mouse hybridoma MAb, IgG2a, kappa; also called MAb F25; biotin-MAb F25
Turning to B1, the binding result was “no binding”.
